Biological target: 6xHis-PDE6D (UniProt O43924 1-150)
Test: fluorescence polarisation

Sequence of 6xHis-PDE6D (O43924 whole entry): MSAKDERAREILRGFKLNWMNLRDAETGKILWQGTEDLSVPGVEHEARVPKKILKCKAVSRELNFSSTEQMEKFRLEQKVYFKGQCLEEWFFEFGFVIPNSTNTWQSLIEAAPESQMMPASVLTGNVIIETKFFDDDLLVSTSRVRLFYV

B1: Wild-type K-Ras peptide (FAM-KKKKKKSKTKC-Far-OMe) (peptide)
peptide: KKKKKKSKTKC
modifications: FAM on the N-terminus; C-terminal cysteine farnesylated (Far) and carboxymethylated (OMe)
Kd: 200 nM
